Measurements reported in patent US20170355769A1 (AbbVie / Abbott, published 2017).
Substitutions are numbered along the chain they refer to.

T1: Human full length B7-H3 (human, UniProt Q5ZPR3 29-534)
T1 construct: On 3T12 fibroblasts expressing full length human B7-H3 or on NCI-H1650 cells; signal peptide residues 1-28 stated; also called huB7-H3; CD276
T1 sequence: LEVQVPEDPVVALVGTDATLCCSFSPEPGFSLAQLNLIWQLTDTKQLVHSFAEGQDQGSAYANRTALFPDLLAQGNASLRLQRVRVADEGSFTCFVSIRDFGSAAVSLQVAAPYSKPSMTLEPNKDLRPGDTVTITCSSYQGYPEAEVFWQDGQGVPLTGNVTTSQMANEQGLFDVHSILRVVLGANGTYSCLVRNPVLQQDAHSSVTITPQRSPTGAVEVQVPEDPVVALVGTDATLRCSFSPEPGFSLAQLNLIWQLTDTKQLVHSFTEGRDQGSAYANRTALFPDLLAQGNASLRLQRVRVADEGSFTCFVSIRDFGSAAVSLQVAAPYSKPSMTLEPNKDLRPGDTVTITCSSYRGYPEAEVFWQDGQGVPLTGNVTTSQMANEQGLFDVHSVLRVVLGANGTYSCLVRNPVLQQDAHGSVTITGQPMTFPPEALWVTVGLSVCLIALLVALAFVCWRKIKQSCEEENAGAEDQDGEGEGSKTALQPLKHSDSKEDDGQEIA

T2: Human B7-H3-ECD (His tag) (human, UniProt Q5ZPR3 29-461)
T2 construct: SPR analyte; also called huB7-H3; soluble ECD of human B7-H3
T2 sequence: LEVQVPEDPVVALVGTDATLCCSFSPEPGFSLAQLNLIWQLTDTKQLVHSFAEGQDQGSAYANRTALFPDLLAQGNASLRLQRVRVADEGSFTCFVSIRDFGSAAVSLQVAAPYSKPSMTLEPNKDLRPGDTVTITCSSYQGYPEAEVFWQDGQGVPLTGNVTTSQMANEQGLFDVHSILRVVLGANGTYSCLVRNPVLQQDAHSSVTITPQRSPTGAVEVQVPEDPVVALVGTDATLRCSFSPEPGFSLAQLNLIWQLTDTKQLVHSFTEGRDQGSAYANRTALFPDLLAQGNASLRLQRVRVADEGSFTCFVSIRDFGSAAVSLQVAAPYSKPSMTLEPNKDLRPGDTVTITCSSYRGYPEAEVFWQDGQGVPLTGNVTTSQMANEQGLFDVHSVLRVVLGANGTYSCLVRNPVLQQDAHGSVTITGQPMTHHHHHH

B1: chAb14 (antibody, IgG1, V domains shown)
VH: EVKLVESGGGLVKPGGSLKLSCAASGFTFSSYGMSWVRQTPEKRLEWVATISGGGTNTYYPDSVEGRFTISRDNAKNFLYLQMSSLRSEDTALYYCARHYGSQTMDYWGQGTSVTVSS
VL: DIQMTQSPASLSASVGETVTITCRTSGNIHNYLTWYQQKQGKSPQLLVYNAKTLADGVPSRFSGSGSGTQFSLKINSLQPEDFGSYYCQHFWSIMWTFGGGTKLEIK
notes: chimeric, huIgG1/k
B2: chAb18 (antibody, IgG1, V domains shown)
VH: QVQLQQSAAELARPGASVKMSCKASGYSFTSYTIHWVKQRPGQGLEWIGYINPNSRNTDYNQKFKDETTLTADRSSSTAYMQLISLTSEDSAVYYCARYSGSTPYWYFDVWGAGTTVTVSS
VL: QIVLTQSPAILSASPGEKVTMTCRASSSVSYMNWYQQKPGSSPKPWIYATSNLASGVPARFSVSVSGTSHSLTISRVEAEDAATYYCQQWSSNPLTFGAGTKLELK
notes: chimeric, huIgG1/k
B3: chAb2 (antibody, IgG1, V domains shown)
VH: QVQLQQPGAELVKPGASVKLSCKASGYTFTSYWMHWVKQRPGQGLEWIGMIHPDSGTTNYNEKFRSKATLTVDKSSSTAYMQLSSLTSEDSAVYYCAVYYGSTYWYFDVWGTGTTVTVSS
VL: DVVMTQTPLSLPVSLGDQAYISCRSSQSLVHINGNTYLHWYRQKPGQSPKLLIYKVSNRFSGVPDRFSGSGSGTDFTLKISRVEAEDLGVYFCSQSTHFPFTFGSGTKLEIK
notes: chimeric, huIgG1/k
B4: chAb11 (antibody, IgG1, V domains shown)
VH: EVKLVESGGGLVQPGGSLRLSCATSGFTFTNYYMSWVRQPPGKALEWLGFIRNKANDYTTEYSASVKGRFTISRDNSQSILYLQMNTLRAEDSATYYCARESPGNPFAYWGQGTLVTVSA
VL: DIVMTQSPSSLTVTAGEKVTMTCKSSQSLLNSGTQKNFLTWYQQKPGQPPKLLIYWASTRESGVPDRFTGSGSGTDFTLTISSVQAEDLAVYFCQNDYIYPLTFGAGTKLELK
notes: chimeric, huIgG1/k
B5: chAb6 (antibody, IgG1, V domains shown)
VH: QVQLQQSGAELMKPGASVKISCKATGYTFSRYWIEWVKQRPGHGLEWIGEILPGSGSTNYNEKFKGKATFTADTSSNTAYMQVSSLTSEDSAVHYCARRGYGYVPYALDYWGQGTSVTVSS
VL: EIQMTQTTSSLSASLGDRVTISCRASQDISNSLNWYQQKPDGTVNLLIYYTSRLYSGVPSRFSGSGSGTDYSLTISNLEQEDIATYFCQQGNTLPYTFGGGTKLEIK
notes: chimeric, huIgG1/k
B6: chAb16 (antibody, IgG1, V domains shown)
VH: EVKLLESGGGLVQPGGSLKLSCAASGFDFSRYWMSWVRQAPGKGLEWIGEINPDSSTINYTPSLKDKFIISRDNAKNTLYLQMSKVRSEDTALYYCARPGFGNYIYAMDYWGQGTSVTVSS
VL: B5 VL with E1D, S22N, S32F, N45K, S56L, Y96P
notes: chimeric, huIgG1/k
B7: chAb4 (antibody, IgG1, V domains shown)
VH: QVQLQQPGAELVKPGASVKLSCKASGYSFTSYWMHWVKQRPGQGLEWIGMIHPNSGSNNYNEKFKSKATLTVDKSSNTAYMQLSSLTSEDSAVYYCARRLGLHFDYWGQGTTLTVSS
VL: DIVMTQSQKFMSTPVGDRVSITCKASQNVGTAVAWYQQKPGQSPKLLIYSASNRYTGVPDRFTGSGSGTDFTLTISNMQSEDLADYFCQQYSSYPYTFGGGTKLEIK
notes: chimeric, huIgG1/k
B8: huAb18v9 (antibody, V domains shown)
VH: EVQLVQSGAEVKKPGSSVKVSCKASGYSFTSYTIHWVRQAPGQGLEWIGYINPNSRNTDYNQKFKDRTTLTADRSTSTAYMELSSLRSEDTAVYYCARYSGSTPYWYFDVWGQGTTVTVSS
VL: EIVLTQSPDFQSVTPKEKVTITCRASSSVSYMNWYQQKPDQSPKPWIYATSNLASGVPSRFSVSVSGTDHTLTINSLEAEDAATYYCQQWSSNPLTFGQGTKLEIK
notes: humanized IgG
B9: chAb14-CZ (antibody, IgG1, V domains shown)
VH: B1 VH
VL: B1 VL
modifications: synthon CZ on reduced interchain Cys
B10: chAb2-CZ (antibody, IgG1, V domains shown)
VH: B3 VH
VL: B3 VL
modifications: synthon CZ on reduced interchain Cys
B11: chAb11-CZ (antibody, IgG1, V domains shown)
VH: B4 VH
VL: B4 VL
modifications: synthon CZ on reduced interchain Cys
B12: chAb6-CZ (antibody, IgG1, V domains shown)
VH: B5 VH
VL: B5 VL
modifications: synthon CZ on reduced interchain Cys
B13: chAb16-CZ (antibody, IgG1, V domains shown)
VH: B6 VH
VL: B5 VL with E1D, S22N, S32F, N45K, S56L, Y96P
modifications: synthon CZ on reduced interchain Cys
B14: chAb4-CZ (antibody, IgG1, V domains shown)
VH: B7 VH
VL: B7 VL
modifications: synthon CZ on reduced interchain Cys

The binders below were run against T1, Human full length B7-H3 (assay: FACS, NCI-H1650 cells).
Experimental: To generate purified chimeric antibodies, expression vectors were transiently transfected into HEK293 6E suspension cell cultures in a ratio of 60% to 40% light to heavy chain construct. 1 mg/ml of polyethylenimine (PEI) or 2.6 μL/mL of Expifectamine was used to transfect the cells. Cell supernatants were harvested after five days in shaking flasks, spun down to pellet cells, and filtered through 0.22 μm filters to separate IgG from culture contaminants. Antibody-containing supernatants were purified on Akta Pure using protein A mAb SelectSure. Columns were equilibrated in PBS pH 7.4, supernatants were then passed through the column and a wash was performed with PBS pH 7.4. IgG were eluted with 0.1 M acetic acid pH 3.5 and collected in several aliquots. Fractions containing IgG were pooled and dialyzed in PBS overnight at 4° C.
(§1) Cells were harvested from flasks when approximately 80% confluent using Gibco® Cell Dissociation Buffer. Cells were washed once in PBS/1% FBS (FACS buffer) then resuspended at 2.5×10⁶ cells/mL in FACS buffer. 100 μL of cells/well were added to a round bottom 96-well plate. 10 μL of a 10× concentration of mAb/ADC (final concentrations are indicated the figures). Wells were washed twice with FACS buffer and resuspended in 50 μL of secondary Ab (AlexaFluor 488) diluted in FACS buffer. The plate was incubated at 4° C. for one hour and washed twice with FACS buffer. Cells were resuspended in 100 μL of PBS/1% formaldehyde and analyzed on a Becton Dickinson LSRII flow cytometer. Data was analyzed using WinList flow cytometry analysis software.

Row | Binder | EC50 [pM]
1 | B1 | 810
2 | B2 | 1140
3 | B3 | 100
4 | B4 | 1120
5 | B5 | 330
6 | B6 | 270
7 | B7 | 560

The binders below were run against T2, Human B7-H3-ECD (His tag) (assay: SPR Biacore, naked mAb).
From the text: Biacore T200 SPR instruments were used to measure the binding kinetics of human B7-H3 (analyte) binding to various mAbs (ligands). The assay format was Fc-based capture via immobilized anti-mouse (Fc) (Pierce 31170) or immobilized anti-human (Fc) (Pierce 31125). A standard amine coupling protocol was employed to immobilize the capture reagents via primary amines to the carboxy-methyl (CM) dextran surface of CM5 sensorchips (Biacore); capture antibodies were coupled to a level of approximately 5000RU. For binding kinetic measurements the assay buffer was HBS-EP+ (Biacore): 10 mM Hepes, pH7.4, 150 mM NaCl, 3 mM EDTA, 0.05% polysorbate 20. During the assay, all measurements were referenced against the capture surface alone. Each assay cycle consisted of the following steps: 1) Capture of ligand to approximately 50RU; 2) Analyte injection over both reference and test surface, 240 μL at 80 μL/min, after which the dissociation was monitored for 900 seconds at 80 μL/min; 3) Regeneration of capture surface with low pH glycine. […] Data were processed and fit to a 1:1 binding model using Biacore T200 Evaluation Software to determine the binding kinetic rate constants, kₐ (on-rate) and kd (off-rate), and the equilibrium dissociation constant (affinity, KD).
The parental chAb18 from which the variants were derived was also tested as a comparator.

Row | Binder | Kd [pM]
8 | B2 | 170
9 | B8 | 380

The binders below were run against T1, Human full length B7-H3 (assay: FACS, cell surface human B7-H3 (as Example 6)).
Experimental: as §1
Nine anti-B7-H3 chimeric antibodies were conjugated to the Bcl-xL inhibiting (Bcl-xLi) synthon CZ (Example 2.1) using conjugation Method A described below. The resulting ADCs (anti-B7-H3 antibodies conjugated to synthon CZ) were tested for binding to cell surface human B7-H3 by FACS (as described in Example 6) and for cell cytotoxicity in cell lines expressing B7-H3. […] Table 6 provides cell surface binding and cytotoxicity activity of anti-B7-H3 chimera ADCs against breast cancer cell HCC38 expressing human B7-H3.

Row | Binder | EC50 [pM]
10 | B9 | 500
11 | B10 | 2600
12 | B11 | 1120
13 | B12 | 560
14 | B13 | 620
15 | B14 | 540
